± gives the uncertainty stated by the source.
Test system: HEK293T
Assay: plasma membrane surface immunostaining intensity (anti-HA, deep receptor scanning) (arbitrary fluorescence units); higher = higher plasma membrane expression

Sequence | plasma membrane surface immunostaining intensity (GPCR class: A) | plasma membrane surface immunostaining intensity (GPCR class: A (Olfactory)) | further results
MAGVVHVSLAALLLLPMAPAMHSDCIFKKEQAMCLEKIQRANELMGFNDSSPGCPGMWDNITCWKPAHVGEMVLVSCPELFRIFNPDQVWETETIGESDFGDSNSLDLSDMGVVSRNCTEDGWSEPFPHYFDACGFDEYESETGDQDYYYLSVKALYTVGYSTSLVTLTTAMVILCRFRKLHCTRNFIHMNLFVSFMLRAISVFIKDWILYAEQDSNHCFISTVECKAVMVFFHYCVVSNYFWLFIEGLYLFTLLVETFFPERRYFYWYTIIGWGTPTVCVTVWATLRLYFDDTGCWDMNDSTALWWVIKGPVVGSIMVNFVLFIGIIVILVQKLQSPDMGGNESSIYLRLARSTLLLIPLFGIHYTVFAFSPENVSKRERLVFELGLGSFQGFVVAVLYCFLNGEVQAEIKRKWRSWKVNRYFAVDFKHRHPSLASSGVNGGTQLSILSKSSSQIRMSGLPADNLAT [ADCYAP1R1] |  |  | plasma membrane surface immunostaining intensity (GPCR class: B): 6416 ± 29
MALLLVSLLAFLSLGSGCHHRICHCSNRVFLCQESKVTEIPSDLPRNAIELRFVLTKLRVIQKGAFSGFGDLEKIEISQNDVLEVIEADVFSNLPKLHEIRIEKANNLLYINPEAFQNLPNLQYLLISNTGIKHLPDVHKIHSLQKVLLDIQDNINIHTIERNSFVGLSFESVILWLNKNGIQEIHNCAFNGTQLDELNLSDNNNLEELPNDVFHGASGPVILDISRTRIHSLPSYGLENLKKLRARSTYNLKKLPTLEKLVALMEASLTYPSHCCAFANWRRQISELHPICNKSILRQEVDYMTQARGQRSSLAEDNESSYSRGFDMTYTEFDYDLCNEVVDVTCSPKPDAFNPCEDIMGYNILRVLIWFISILAITGNIIVLVILTTSQYKLTVPRFLMCNLAFADLCIGIYLLLIASVDIHTKSQYHNYAIDWQTGAGCDAAGFFTVFASELSVYTLTAITLERWHTITHAMQLDCKVQLRHAASVMVMGWIFAFAAALFPIFGISSYMKVSICLPMDIDSPLSQLYVMSLLVLNVLAFVVICGCYIHIYLTVRNPNIVSSSSDTRIAKRMAMLIFTDFLCMAPISFFAISASLKVPLITVSKAKILLVLFHPINSCANPFLYAIFTKNFRRDFFILLSKCGCYEMQAQIYRTETSSTVHNTHPRNGHCSSAPRVTSGSTYILVPLSHLAQN [FSHR] | 378 ± 44 |  | 
MALTPESPSSFPGLAATGSSVPEPPGGPNATLNSSWASPTEPSSLEDLVATGTIGTLLSAMGVVGVVGNAYTLVVTCRSLRAVASMYVYVVNLALADLLYLLSIPFIVATYVTKEWHFGDVGCRVLFGLDFLTMHASIFTLTVMSSERYAAVLRPLDTVQRPKGYRKLLALGTWLLALLLTLPVMLAMRLVRRGPKSLCLPAWGPRAHRAYLTLLFATSIAGPGLLIGLLYARLARAYRRSQRASFKRARRPGARALRLVLGIVLLFWACFLPFWLWQLLAQYHQAPLAPRTARIVNYLTTCLTYGNSCANPFLYTLLTRNYRDHLRGRVRGPGSGGGRGPVPSLQPRARFQRCSGRSLSSCSPQPTDSLVLAPAAPARPAPEGPRAPA [UTS2R] | 2430 ± 120 |  | 
MAMTWIVFSLWPLTVFMGHIGGHSLFSCEPITLRMCQDLPYNTTFMPNLLNHYDQQTAALAMEPFHPMVNLDCSRDFRPFLCALYAPICMEYGRVTLPCRRLCQRAYSECSKLMEMFGVPWPEDMECSRFPDCDEPYPRLVDLNLAGEPTEGAPVAVQRDYGFWCPRELKIDPDLGYSFLHVRDCSPPCPNMYFRREELSFARYFIGLISIICLSATLFTFLTFLIDVTRFRYPERPIIFYAVCYMMVSLIFFIGFLLEDRVACNASIPAQYKASTVTQGSHNKACTMLFMILYFFTMAGSVWWVILTITWFLAAVPKWGSEAIEKKALLFHASAWGIPGTLTIILLAMNKIEGDNISGVCFVGLYDVDALRYFVLAPLCLYVVVGVSLLLAGIISLNRVRIEIPLEKENQDKLVKFMIRIGVFSILYLVPLLVVIGCYFYEQAYRGIWETTWIQERCREYHIPCPYQVTQMSRPDLILFLMKYLMALIVGIPSVFWVGSKKTCFEWASFFHGRRKKEIVNESRQVLQEPDFAQSLLRDPNTPIIRKSRGTSTQGTSTHASSTQLAMVDDQRSKAGSIHSKVSSYHGSLHRSRDGRYTPCSYRGMEERLPHGSMSRLTDHSRHSSSHRLNEQSRHSSIRDLSNNPMTHITHGTSMNRVIEEDGTSA [FZD3] |  |  | plasma membrane surface immunostaining intensity (GPCR class: F): 177 ± 57
MANFTPVNGSSGNQSVRLVTSSSHNRYETVEMVFIATVTGSLSLVTVVGNILVMLSIKVNRQLQTVNNYFLFSLACADLIIGAFSMNLYTVYIIKGYWPLGAVVCDLWLALDYVVSNASVMNLLIISFDRYFCVTKPLTYPARRTTKMAGLMIAAAWVLSFVLWAPAILFWQFVVGKRTVPDNQCFIQFLSNPAVTFGTAIAAFYLPVVIMTVLYIHISLASRSRVHKHRPEGPKEKKAKTLAFLKSPLMKQSVKKPPPGEAAREELRNGKLEEAPPPALPPPPRPVADKDTSNESSSGSATQNTKERPATELSTTEATTPAMPAPPLQPRALNPASRWSKIQIVTKQTGNECVTAIEIVPATPAGMRPAANVARKFASIARNQVRKKRQMAARERKVTRTIFAILLAFILTWTPYNVMVLVNTFCQSCIPDTVWSIGYWLCYVNSTINPACYALCNATFKKTFRHLLLCQYRNIGTAR [CHRM4] | 952 ± 190 |  | 
MANITRMANHTGKLDFILMGLFRRSKHPALLSVVIFVVFLKALSGNAVLILLIHCDAHLHSPMYFFISQLSLMDMAYISVTVPKMLLDQVMGVNKVSAPECGMQMFLYLTLAGSEFFLLATMAYDRYVAICHPLRYPVLMNHRVCLFLASGCWFLGSVDGFMLTPITMSFPFCRSWEIHHFFCEVPAVTILSCSDTSLYETLMYLCCVLMLLIPVTIISSSYLLILLTVHRMNSAEGRKKAFATCSSHLTVVILFYGAAVYTYMLPSSYHTPEKDMMVSVFYTILTPVLNPLIYSLRNKDVMGALKKMLTVRFVL [OR2T5] |  | 121 ± 14 | 
MANITRMANHTGRLDFILMGLFRQSKHPALLSVVIFVVFLKALSGNAVLILLIHCDAHLHSPMYFFISQLSLMDMAYISVTVPKMLLDQVMGVNKVSAPECGMQMFLYLTLAGSEFFLLATMAYDRYVAICHPLRYPVLMNHRVCLFLASGCWFLGSVDGFMLTPITMSFPFCRSWEIHHFFCEVPAVTILSCSDTSLYETLMYLCCVLMLLIPVTIISSSYLLILLTVHRMNSAEGRKKAFATCSSHLTVVILFYGAAVYTYMLPSSYHTPEKDMMVSVFYTILTPVLNPLIYSLRNKDVMGALKKMLTVRFVL [OR2T29] |  | 131 ± 21 | 
MANSASPEQNQNHCSAINNSIPLMQGNLPTLTLSGKIRVTVTFFLFLLSATFNASFLLKLQKWTQKKEKGKKLSRMKLLLKHLTLANLLETLIVMPLDGMWNITVQWYAGELLCKVLSYLKLFSMYAPAFMMVVISLDRSLAITRPLALKSNSKVGQSMVGLAWILSSVFAGPQLYIFRMIHLADSSGQTKVFSQCVTHCSFSQWWHQAFYNFFTFSCLFIIPLFIMLICNAKIIFTLTRVLHQDPHELQLNQSKNNIPRARLKTLKMTVAFATSFTVCWTPYYVLGIWYWFDPEMLNRLSDPVNHFFFLFAFLNPCFDPLIYGYFSL [GNRHR] | 160 ± 34 |  | 
MANVTLVTGFLLMGFSNIQKLRILYGVLFLLIYLAALMSNLLIITLITLDVKLQTPMYFFLKNLSFLDVFLVSVPIPKFIVNNLTHNNSISILGCAFQLLLMTSFSAGEIFILTAMSYDRYVAICCPLNYEVIMNTGVCVLMASVSWAIGGLFGTAYTAGTFSMPFCGSSVIPQFFCDVPSLLRISCSETLMVIYAGIGVGACLSISCFICIVISYIYIFSTVLKIPTTKGQSKAFSTCFPHLTVFTVFIITAYFVYLKPPSNSPSVIDRLLSVIYTVMPPVFNPVTYSLRNNDMKCALIRLLQKTYGQEAYFI [OR14A2] |  | 133 ± 42 | 
MANYTLAPEDEYDVLIEGELESDEAEQCDKYDAQALSAQLVPSLCSAVFVIGVLDNLLVVLILVKYKGLKRVENIYLLNLAVSNLCFLLTLPFWAHAGGDPMCKILIGLYFVGLYSETFFNCLLTVQRYLVFLHKGNFFSARRRVPCGIITSVLAWVTAILATLPEFVVYKPQMEDQKYKCAFSRTPFLPADETFWKHFLTLKMNISVLVLPLFIFTFLYVQMRKTLRFREQRYSLFKLVFAIMVVFLLMWAPYNIAFFLSTFKEHFSLSDCKSSYNLDKSVHITKLIATTHCCINPLLYAFLDGTFSKYLCRCFHLRSNTPLQPRGQSAQGTSREEPDHSTEV [CCRL2] | 569 ± 46 |  | 
MAQQWSLQRLAGRHPQDSYEDSTQSSIFTYTNSNSTRGPFEGPNYHIAPRWVYHLTSVWMIFVVIASVFTNGLVLAATMKFKKLRHPLNWILVNLAVADLAETVIASTISVVNQVYGYFVLGHPMCVLEGYTVSLCGITGLWSLAIISWERWMVVCKPFGNVRFDAKLAIVGIAFSWIWAAVWTAPPIFGWSRYWPHGLKTSCGPDVFSGSSYPGVQSYMIVLMVTCCITPLSIIVLCYLQVWLAIRAVAKQQKESESTQKAEKEVTRMVVVMVLAFCFCWGPYAFFACFAAANPGYPFHPLMAALPAFFAKSATIYNPVIYVFMNRQFRNCILQLFGKKVDDGSELSSASKTEVSSVSSVSPA [OPN1MW3] | 288 ± 18 |  | 
MAQQWSLQRLAGRHPQDSYEDSTQSSIFTYTNSNSTRGPFEGPNYHIAPRWVYHLTSVWMIFVVTASVFTNGLVLAATMKFKKLRHPLNWILVNLAVADLAETVIASTISIVNQVSGYFVLGHPMCVLEGYTVSLCGITGLWSLAIISWERWMVVCKPFGNVRFDAKLAIVGIAFSWIWAAVWTAPPIFGWSRYWPHGLKTSCGPDVFSGSSYPGVQSYMIVLMVTCCIIPLAIIMLCYLQVWLAIRAVAKQQKESESTQKAEKEVTRMVVVMIFAYCVCWGPYTFFACFAAANPGYAFHPLMAALPAYFAKSATIYNPVIYVFMNRQFRNCILQLFGKKVDDGSELSSASKTEVSSVSSVSPA [OPN1LW] | 261 ± 14 |  | 
MARENHSLAAEFILIGFTNYPELKTLLFVVFSAIYLVTMVGNLGLVALIYVERRLLTPMYIFLGNLALMDSCCSCAVTPKMLENFFSEDRIISLYECMAQFYFLCLAETTDCFLLATMAYDRYVAICHPLQYHTMMSKTLCIRMTTGAFKAGNLHSMIHVGLLLRLTFCRSNKIHHFFCDILPLYRLSCTDPSINELMIYIFSIPIQIFTIATVLISYLCILLTVFKMKSKEGRGKAFSTCASHFLSVSIFYICLLMYIGPSEEGDKDTPVAIFYAIVIPLLNPFIYSLRNKEVINVLKKIMRNYNILKQTCSIANLFLIY [OR5K4] |  | 254 ± 110 | 
MARENSTFNSDFILLGIFNHSPTHTFLFFLVLAIFSVAFMGNSVMVLLIYLDTQLHTPMYLLLSQLSLMDLMLICTTVPKMAFNYLSGSKSISMAGCATQIFFYTSLLGSECFLLAVMAYDRYTAICHPLRYTNLMSPKICGLMTAFSWILGSTDGIIDVVATFSFSYCGSREIAHFFCDFPSLLILSCSDTSIFEKILFICCIVMIVFPVAIIIASYARVILAVIHMGSGEGRRKAFTTCSSHLLVVGMYYGAALFMYIRPTSDRSPTQDKMVSVFYTILTPMLNPLIYSLRNKEVTRAFMKILGKGKSGE [OR2M3] |  | 138 ± 19 | 

— the supplement of paper PMC12458215
